Data from patent publication US20150098945A1 (Daiichi Sankyo, published 2015).

How the values were obtained:
[1] = biological target: T1, N-terminal FLAG-tagged human ROBO4 extracellular region/domain deletion variant hROBO4-341 (human, UniProt Q8WZ75 341-1007); experiment: flow cytometry, HEK293 cells transfected with pCI-FLAG-hROBO4-341, anti-mouse IgG FITC; control histogram IgG (Mouse IgG2a)
T1 construct: On transfected HEK293 cells; also called pCI-FLAG-hROBO4-341; pCI-hROBO4-341
T1 sequence: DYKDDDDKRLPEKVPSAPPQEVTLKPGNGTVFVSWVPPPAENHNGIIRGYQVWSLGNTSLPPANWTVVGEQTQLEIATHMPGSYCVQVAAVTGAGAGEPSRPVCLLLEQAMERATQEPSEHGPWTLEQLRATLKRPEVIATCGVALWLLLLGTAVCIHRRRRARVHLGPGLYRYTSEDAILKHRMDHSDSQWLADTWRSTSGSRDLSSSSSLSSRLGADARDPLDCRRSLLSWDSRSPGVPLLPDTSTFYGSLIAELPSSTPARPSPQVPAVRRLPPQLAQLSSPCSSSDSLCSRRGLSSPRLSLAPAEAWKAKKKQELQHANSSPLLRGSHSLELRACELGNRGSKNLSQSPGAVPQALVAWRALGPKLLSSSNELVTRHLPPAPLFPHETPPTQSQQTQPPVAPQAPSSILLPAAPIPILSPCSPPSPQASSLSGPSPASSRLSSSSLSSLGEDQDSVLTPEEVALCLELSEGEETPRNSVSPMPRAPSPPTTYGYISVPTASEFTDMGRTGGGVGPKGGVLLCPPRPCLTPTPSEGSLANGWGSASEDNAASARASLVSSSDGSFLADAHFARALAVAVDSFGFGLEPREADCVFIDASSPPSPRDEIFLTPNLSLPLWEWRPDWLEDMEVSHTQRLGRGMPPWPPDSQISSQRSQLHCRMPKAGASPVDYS
Experimental: (§1) HEK293 cells were inoculated at a concentration of 1.5×10⁶ cells/dish to a 60-mm dish (manufactured by Corning Inc.) and cultured overnight in a DMEM medium containing 10% FBS at 37° C. under 5% CO₂ conditions. […] On the next day, the expression vector-transfected cells were treated with TrypLE Express (manufactured by Life Technologies Corp.), washed with PBS containing 5% FBS, and then suspended in PBS containing 5% FBS. The obtained cell suspension was used in flow cytometry analysis.
(§2) Each cell suspension prepared in 4)-5-1 was centrifuged, and the supernatant was removed. Then, MAb1, a positive control Monoclonal ANTI-FLAG M2 antibody produced in mouse, or a negative control Mouse IgG2a was added at a concentration of 10 μg/mL to 2×10⁵ expression vector-transfected cells, and the resulting suspension was left standing at 4° C. for 1 hour. The cells were washed once with PBS containing 5% FBS. Then, Anti-Mouse IgG FITC conjugate diluted 1000-fold with PBS containing 5% FBS was added thereto, and the resulting suspension was left standing at 4° C. for 1 hour. […] Data was analyzed using Flowjo. The histogram of FITC fluorescence intensity was prepared. The antibody was determined to bind to a cell when the histogram of MAb1 was shifted to a stronger fluorescence intensity region compared with the histogram of the negative control Mouse IgG2a. […]

[2] = biological target: T2, N-terminal FLAG-tagged full-length human ROBO4 (pCI-FLAG-hROBO4-28) (human, UniProt Q8WZ75 28-1007); experiment: flow cytometry, HEK293 cells transfected with pCI-FLAG-hROBO4-28, antibody at 10 µg/mL, anti-mouse IgG FITC; control histogram IgG (Mouse IgG2a)
T2 construct: On transfected HEK293 cells
T2 sequence: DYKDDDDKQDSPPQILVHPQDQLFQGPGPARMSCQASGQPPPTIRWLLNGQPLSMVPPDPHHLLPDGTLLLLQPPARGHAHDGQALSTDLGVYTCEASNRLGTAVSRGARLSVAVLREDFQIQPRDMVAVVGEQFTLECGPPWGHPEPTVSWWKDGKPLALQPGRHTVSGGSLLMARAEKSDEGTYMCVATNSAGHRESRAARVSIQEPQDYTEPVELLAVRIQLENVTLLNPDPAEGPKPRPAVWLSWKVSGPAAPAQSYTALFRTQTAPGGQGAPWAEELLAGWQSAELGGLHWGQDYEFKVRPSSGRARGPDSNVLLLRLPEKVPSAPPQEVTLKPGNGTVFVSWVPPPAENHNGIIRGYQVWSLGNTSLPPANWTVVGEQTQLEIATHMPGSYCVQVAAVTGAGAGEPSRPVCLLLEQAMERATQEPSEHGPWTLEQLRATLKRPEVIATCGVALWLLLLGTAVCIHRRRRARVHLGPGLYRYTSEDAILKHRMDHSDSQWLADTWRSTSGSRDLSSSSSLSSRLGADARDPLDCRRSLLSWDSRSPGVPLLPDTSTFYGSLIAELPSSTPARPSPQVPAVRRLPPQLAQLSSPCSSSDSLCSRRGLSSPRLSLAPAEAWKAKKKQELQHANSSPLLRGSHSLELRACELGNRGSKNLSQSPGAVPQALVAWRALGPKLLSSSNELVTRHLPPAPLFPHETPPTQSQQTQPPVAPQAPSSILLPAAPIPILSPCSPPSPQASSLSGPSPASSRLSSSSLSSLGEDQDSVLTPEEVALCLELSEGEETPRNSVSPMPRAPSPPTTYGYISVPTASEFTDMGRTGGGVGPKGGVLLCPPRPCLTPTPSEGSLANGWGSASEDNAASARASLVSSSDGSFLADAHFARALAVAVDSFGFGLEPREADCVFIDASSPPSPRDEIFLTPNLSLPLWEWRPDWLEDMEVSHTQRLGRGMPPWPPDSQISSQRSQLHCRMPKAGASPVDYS
Experimental: as §1, §2

binding result [1]: no binding (tested: 10 µg/mL)
binding result [2]: binds
B1: anti-ROBO4 mouse monoclonal antibody MAb1 (antibody, mouse IgG1, V domains shown)
VH: EVQLVESGGGLVKPGGSLKLSCAASGFTFSTYAMSWVRQTPEKRLEWVATISNGGTYTYYPDSVKGRFTISRDNAENTLYLQMSSLRSEDTAMYFCARLIYYDYLDYWGHGTTLTVSS
VL: DAVMTQTPLSLPVSLGDQASISCRSSQSLENSNGNTYLNWYFQKPGQSPQLLIYRVSNRFSGVLDRFSGSGSGTDFTLKISRVEAEDFGVYFCLQVTHVPWTFGGGTKLEIKR
notes: Mouse IgG1 (gamma1), kappa light chain, purified from hybridoma supernatant; also called parent antibody MAb1
